Four molecules from paper PMC9482650, “Quantitative fragmentomics allow affinity mapping of interactomes” (Nature Communications, 2022) can be followed below.

Some targets named below: AHNAK1, Q09666; DLG2_3, Q15700; GORASP2, Q9H8Y8; GRIP2_3, Q9C0E4; GRIP2_5, Q9C0E4; HTRA2, O43464; Inadl_4, Q8NI35; TJP1_2, Q07157.
Holding throughout (test): holdup assay
Holding throughout (set-up): key: below the threshold = too weak to quantify, mostly under pKd 3.1 to 4

The next assay concerns the target T1, APBA1_1, Q02410.
T1 sequence (Q02410 651-752, limits assumed, looked up): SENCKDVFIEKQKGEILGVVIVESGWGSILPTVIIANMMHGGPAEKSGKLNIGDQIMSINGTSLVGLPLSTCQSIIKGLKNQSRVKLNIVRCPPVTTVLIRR

A further assay deals with T2, CARD11, Q9BXL7.
T2 sequence (Q9BXL7 662-765, limits assumed, looked up): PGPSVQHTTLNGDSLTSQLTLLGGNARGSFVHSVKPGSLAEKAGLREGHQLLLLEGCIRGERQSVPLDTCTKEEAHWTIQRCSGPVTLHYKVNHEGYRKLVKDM

For the next assay, the target named is T3, DFNB31_2, Q9P202.
T3 sequence (Q9P202 274-371, limits assumed, looked up): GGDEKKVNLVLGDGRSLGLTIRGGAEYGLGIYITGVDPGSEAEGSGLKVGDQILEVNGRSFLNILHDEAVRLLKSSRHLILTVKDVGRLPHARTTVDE

The target of the next assay is T4, GRIP1_2, Q9Y3R0.
T4 sequence (Q9Y3R0 145-248, limits assumed, looked up): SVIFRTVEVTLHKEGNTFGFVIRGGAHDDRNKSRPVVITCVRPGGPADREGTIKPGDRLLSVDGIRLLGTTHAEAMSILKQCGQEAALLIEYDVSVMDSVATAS

The target of a further assay is T5, GRIP1_3, Q9Y3R0.
T5 sequence (Q9Y3R0 247-346, limits assumed, looked up): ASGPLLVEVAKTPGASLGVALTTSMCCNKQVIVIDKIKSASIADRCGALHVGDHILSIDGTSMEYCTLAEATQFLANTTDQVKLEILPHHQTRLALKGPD

Another assay addresses T6, GRIP1_5, Q9Y3R0.
T6 sequence (Q9Y3R0 568-668, limits assumed, looked up): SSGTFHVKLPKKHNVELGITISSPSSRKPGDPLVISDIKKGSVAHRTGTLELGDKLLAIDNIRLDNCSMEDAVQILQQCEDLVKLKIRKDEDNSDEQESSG

For a further assay, the target named is T7, LNX2_2, Q8N448.
T7 sequence (Q8N448 334-432, limits assumed, looked up): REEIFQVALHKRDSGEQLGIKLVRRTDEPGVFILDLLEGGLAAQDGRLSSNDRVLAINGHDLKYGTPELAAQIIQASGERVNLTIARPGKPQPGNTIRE

The target in a further assay is T8, MPDZ_10, O75970.
T8 sequence (O75970 1624-1722, limits assumed, looked up): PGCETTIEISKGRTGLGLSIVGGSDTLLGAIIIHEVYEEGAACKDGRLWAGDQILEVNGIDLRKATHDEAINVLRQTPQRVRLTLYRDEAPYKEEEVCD

For another assay, the target named is T9, MPP6, Q9NZW5.
T9 sequence (Q9NZW5 125-219, limits assumed, looked up): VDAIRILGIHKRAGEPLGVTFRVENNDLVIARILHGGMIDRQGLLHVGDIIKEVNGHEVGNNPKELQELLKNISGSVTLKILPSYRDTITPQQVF

Another assay addresses T10, PTPN13_1, Q12923.
T10 sequence (Q12923 1088-1188, limits assumed, looked up): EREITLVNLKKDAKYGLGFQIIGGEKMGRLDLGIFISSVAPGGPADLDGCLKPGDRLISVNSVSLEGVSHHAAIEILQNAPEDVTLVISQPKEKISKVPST

The target of another assay is T11, SIPA1L2, Q9P2F8.
T11 sequence (Q9P2F8 945-1036, limits assumed, looked up): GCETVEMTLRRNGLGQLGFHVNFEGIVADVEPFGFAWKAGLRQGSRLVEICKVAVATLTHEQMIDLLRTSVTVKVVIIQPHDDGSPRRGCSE

The target of a further assay is T12, SNTA1, Q13424.
T12 sequence (Q13424 82-180, limits assumed, looked up): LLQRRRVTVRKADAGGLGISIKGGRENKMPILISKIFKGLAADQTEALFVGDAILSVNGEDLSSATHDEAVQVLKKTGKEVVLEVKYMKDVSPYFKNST

A further assay addresses T13, TJP3_3, O95049.
T13 sequence (O95049 375-456, limits assumed, looked up): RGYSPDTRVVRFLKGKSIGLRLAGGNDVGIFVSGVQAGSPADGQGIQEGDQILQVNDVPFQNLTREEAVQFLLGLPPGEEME

In a further assay the target is T14, TX1BP3, O14907.
T14 sequence (O14907 10-122, limits assumed, looked up): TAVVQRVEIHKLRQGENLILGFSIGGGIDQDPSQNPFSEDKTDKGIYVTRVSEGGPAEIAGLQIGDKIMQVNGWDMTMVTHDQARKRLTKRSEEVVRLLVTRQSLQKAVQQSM

Setting [1] is: plain residues with an end cap or a label only (N-terminal biotin on a linker: ahx).
[2] abbreviates: plain residues with an end cap or a label only (N-terminal biotin on a linker: ttds).

Chain of GRIP2_3, Q9C0E4 (Q9C0E4 238-339): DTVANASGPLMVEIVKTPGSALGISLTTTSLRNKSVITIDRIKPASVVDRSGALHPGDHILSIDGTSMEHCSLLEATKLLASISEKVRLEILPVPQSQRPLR
Chain of Inadl_4, Q8NI35 (Q8NI35 547-651): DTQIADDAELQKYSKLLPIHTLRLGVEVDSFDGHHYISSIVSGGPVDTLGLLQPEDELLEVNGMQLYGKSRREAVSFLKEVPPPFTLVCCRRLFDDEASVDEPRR
Chain of TJP1_2, Q07157 (Q07157 181-274): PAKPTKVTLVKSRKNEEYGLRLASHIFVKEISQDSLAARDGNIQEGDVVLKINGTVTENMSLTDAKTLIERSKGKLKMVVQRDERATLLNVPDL
Chain of HTRA2, O43464 (O43464 355-458): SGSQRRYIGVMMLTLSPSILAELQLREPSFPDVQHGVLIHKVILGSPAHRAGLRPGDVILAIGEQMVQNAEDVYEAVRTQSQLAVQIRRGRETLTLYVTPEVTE
Chain of GRIP2_5, Q9C0E4 (Q9C0E4 544-642): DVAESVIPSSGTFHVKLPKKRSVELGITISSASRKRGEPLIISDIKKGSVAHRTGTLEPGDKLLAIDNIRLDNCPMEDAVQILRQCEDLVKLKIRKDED
Chain of AHNAK1, Q09666 (Q09666 4-100): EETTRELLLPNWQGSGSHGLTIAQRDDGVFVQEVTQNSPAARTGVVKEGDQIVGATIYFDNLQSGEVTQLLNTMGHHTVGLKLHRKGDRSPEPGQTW

In general, pKd refers to the negative decadic logarithm of the Kd, by convention in mol/L. For HNAFLSVTTV [PDZRN4, Q6ZMN7], the pKd is 3.7 with AHNAK1, Q09666 (setting [1]); 3.49 in the assay with APBA1_1, Q02410 (setting [1]); “below the threshold” with CARD11, Q9BXL7 (setting [1]); “below the threshold” with DFNB31_2, Q9P202 (setting [1]); 3.53 with DLG2_3, Q15700 (setting [1]); 3.55 with GORASP2, Q9H8Y8 (setting [1]). The pKd result is “below the threshold” with GRIP1_2, Q9Y3R0 (setting [1]); “below the threshold” in the assay with GRIP1_3, Q9Y3R0 (setting [1]); 3.55 with GRIP1_5, Q9Y3R0 (setting [1]); “below the threshold” in the assay with GRIP2_3, Q9C0E4 (setting [1]); “below the threshold” in the assay with GRIP2_5, Q9C0E4 (setting [1]); “below the threshold” with HTRA2, O43464 (setting [1]). For the same molecule, the pKd entry with Inadl_4, Q8NI35 (setting [1]) was “below the threshold”; with LNX2_2, Q8N448 (setting [1]), 3.87; with MPDZ_10, O75970 (setting [1]), 3.75; with MPP6, Q9NZW5 (setting [1]) it was 3.5; with PTPN13_1, Q12923 (setting [1]) it was “below the threshold”; with SIPA1L2, Q9P2F8 (setting [1]), “below the threshold”. Besides, the pKd was 3.56 with SNTA1, Q13424 (setting [1]); “below the threshold” with TJP1_2, Q07157 (setting [1]); “below the threshold” in the assay with TJP3_3, O95049 (setting [1]); “below the threshold” in the assay with TX1BP3, O14907 (setting [1]).

Take GYDWGPATDL [TJP3, O95049]: the pKd result is “below the threshold” in the assay with AHNAK1, Q09666 (setting [1]); “below the threshold” in the assay with APBA1_1, Q02410 (setting [1]); “below the threshold” with CARD11, Q9BXL7 (setting [1]); “below the threshold” in the assay with DFNB31_2, Q9P202 (setting [1]); 3.52 with DLG2_3, Q15700 (setting [1]); “below the threshold” with GORASP2, Q9H8Y8 (setting [1]). Also, the pKd entry was “below the threshold” with GRIP1_2, Q9Y3R0 (setting [1]); “below the threshold” with GRIP1_3, Q9Y3R0 (setting [1]); “below the threshold” in the assay with GRIP1_5, Q9Y3R0 (setting [1]); “below the threshold” with GRIP2_3, Q9C0E4 (setting [1]); “below the threshold” with GRIP2_5, Q9C0E4 (setting [1]); “below the threshold” in the assay with HTRA2, O43464 (setting [1]). For the same molecule, the pKd result with Inadl_4, Q8NI35 (setting [1]) is given as “below the threshold”; with LNX2_2, Q8N448 (setting [1]) it was “below the threshold”; in the assay with MPDZ_10, O75970 (setting [1]), “below the threshold”; with MPP6, Q9NZW5 (setting [1]) it was “below the threshold”; in the assay with PTPN13_1, Q12923 (setting [1]), “below the threshold”; with SIPA1L2, Q9P2F8 (setting [1]) it was “below the threshold”. For the same molecule, the pKd with SNTA1, Q13424 (setting [1]) was 4.07; in the assay with TJP1_2, Q07157 (setting [1]) it was “below the threshold”; with TJP3_3, O95049 (setting [1]), “below the threshold”; with TX1BP3, O14907 (setting [1]) it was 4.39.

On to EVVHTPETSV [SLC16A3, O15427], for which the pKd entry is “below the threshold” in the assay with AHNAK1, Q09666 (setting [2]); “below the threshold” with APBA1_1, Q02410 (setting [2]); “below the threshold” in the assay with CARD11, Q9BXL7 (setting [2]); “below the threshold” with DFNB31_2, Q9P202 (setting [2]); 4.35 with DLG2_3, Q15700 (setting [2]); “below the threshold” with GORASP2, Q9H8Y8 (setting [2]). For the same molecule, the pKd result with GRIP1_2, Q9Y3R0 (setting [2]) is given as “below the threshold”; with GRIP1_3, Q9Y3R0 (setting [2]) it was “below the threshold”; with GRIP1_5, Q9Y3R0 (setting [2]) it was “below the threshold”; in the assay with GRIP2_3, Q9C0E4 (setting [2]), “below the threshold”; with GRIP2_5, Q9C0E4 (setting [2]) it was “below the threshold”; in the assay with HTRA2, O43464 (setting [2]), “below the threshold”. For the same molecule, the pKd entry in the assay with Inadl_4, Q8NI35 (setting [2]) is given as “below the threshold”; with LNX2_2, Q8N448 (setting [2]), “below the threshold”; with MPDZ_10, O75970 (setting [2]) it was “below the threshold”; with MPP6, Q9NZW5 (setting [2]), “below the threshold”; with PTPN13_1, Q12923 (setting [2]) it was “below the threshold”; with SIPA1L2, Q9P2F8 (setting [2]), “below the threshold”. In addition, the pKd in the assay with SNTA1, Q13424 (setting [2]) is 4.69; with TJP1_2, Q07157 (setting [2]), 3.83; in the assay with TJP3_3, O95049 (setting [2]) it was “below the threshold”; with TX1BP3, O14907 (setting [2]), 3.84.

With RLPKIKETTV [FRMPD4, Q14CM0], the pKd result in the assay with AHNAK1, Q09666 (setting [2]) was “below the threshold”; in the assay with APBA1_1, Q02410 (setting [2]) it was “below the threshold”; in the assay with CARD11, Q9BXL7 (setting [2]), “below the threshold”; with DFNB31_2, Q9P202 (setting [2]) it was 4.12; with DLG2_3, Q15700 (setting [2]) it was 5.15; in the assay with GORASP2, Q9H8Y8 (setting [2]), 4.02. The pKd result with GRIP1_2, Q9Y3R0 (setting [2]) is on record as “below the threshold”; with GRIP1_3, Q9Y3R0 (setting [2]) it was “below the threshold”; with GRIP1_5, Q9Y3R0 (setting [2]) it was “below the threshold”; with GRIP2_3, Q9C0E4 (setting [2]), “below the threshold”; with GRIP2_5, Q9C0E4 (setting [2]), “below the threshold”; in the assay with HTRA2, O43464 (setting [2]) it was “below the threshold”. Further, the pKd result was “below the threshold” with Inadl_4, Q8NI35 (setting [2]); 4.47 with LNX2_2, Q8N448 (setting [2]); “below the threshold” with MPDZ_10, O75970 (setting [2]); “below the threshold” with MPP6, Q9NZW5 (setting [2]); “below the threshold” with PTPN13_1, Q12923 (setting [2]); “below the threshold” in the assay with SIPA1L2, Q9P2F8 (setting [2]). The pKd is 6.66 with SNTA1, Q13424 (setting [2]); “below the threshold” in the assay with TJP1_2, Q07157 (setting [2]); “below the threshold” with TJP3_3, O95049 (setting [2]); 4.57 with TX1BP3, O14907 (setting [2]).
